Assay results: patent US20230374526A1, “FORSKOLIN-INDUCIBLE PROMOTERS AND HYPOXIA-INDUCIBLE PROMOTERS” (ASKLEPIOS BIOPHARMACEUTICAL, INC., priority 2020, published 2023)

How the values were obtained:
[1] = test system: CHO-GS-KSV1 cell line; assay: SEAP expression from forskolin-inducible promoters in stably transfected cell line, forskolin or NKH477 induction; type: cell-based, chinese hamster; conditions: for Promoter strength ranking: SEAP, stably transfected CHO-GS-KSV1
Experimental: The forskolin-inducible promoters were then tested in a stably transfected CHO-GS-KSV1 cell line.
Cell suspensions of 6×10^5 cells per mL were incubated on an orbital shaker set at 8% CO2, 20% O2, 37° C., 85% relative humidity and 140 rpm overnight. 2.86×10^7 cells were centrifuged at 200 g for 3 minutes. Media was then aspirated and cell pellet resuspended in 2 mL fresh CD-CHO media to obtain a concentration of 1.43×10^7 cells per mL. 700 μL of cell suspension was added to each of two electroporation cuvettes each containing […] of linearised DNA in 100 μL of sterile TE buffer (Thermofisher, 12090015). Each cuvette was electroporated, delivering a single pulse of 300V, 900 μF with resistance to infinity. Immediately after delivery of pulse electroplated cells were transferred to Erlenmeyer 125 mL flask containing 20 mL of CD-CHO media pre-warmed to 37° C. Electroporated cells from two cuvettes are combined into a single 125 mL flask to generate one pool of cells. Cells are cultured on an orbital shaker set at 8% CO2, 20% O2, 37° C., 85% relative humidity and 140 rpm. Cells are transferred to fresh CD-CHO media 24 hours after transfection and cell cultures monitored and given fresh CD-CHO media every 2-4 days. Usually after about 10-14 days cell numbers will be high enough to start passaging. […]
The promoter activity and inducibility of FMP-02, FORCSV-10, FOR-CMC-009, and FLP-01 were also tested in the stably transfected CHO-GS-KSV1 cell line. […] After this point, the SEAP activity in the medium was assessed as described below.
SEAP Reporter Gene Assay, chemiluminescent (Roche, CAT #11 779 842 001) was used to measure SEAP activity as per the manufacturer's protocol. […] The signal is then read at 477 nm and compared to a calibration curve. […]

[2] = test system: HEK-293 cells; assay: Optimum inducer concentration to induce expression; type: cell-based, human
[3] = cited from earlier work
[4] = test system: HEK293-F cells; assay: Luciferase expression from forskolin-inducible promoters, transient transfection, forskolin induction; type: cell-based, human; conditions: transiently transfected HEK293-F, 20 μM forskolin
Experimental: Luciferase readouts were normalised to β-galactosidase to produce normalised relative luminometer units (RLUs). β-galactosidase containing pcDNA6 plasmid was used as internal control for transfection efficiency (Thermofisher, V22020). β-galactosidase activity was measured as per manufacturer's instructions (Mammalian pGalactosidase Assay Kit, 75707/75710, Thermo Scientific) using 25 μl of lysate. 25 μl of lysate was transferred into a microplate well and mixed with 25 μl of β-galactosidase Assay Reagent, equilibrated to room temperature. The mixture was incubated at 37° C. for 30 min and absorbance measured at 405 nm.
The tested promoters were synthesised directly upstream of the ATG of PM-RQ plasmid and the suspension cell lines were transiently transfected with the PM-RQ plasmid.
40 ml of cells were grown in a 250 ml vented Erlenmeyer flask (Sigma-Aldrich CLS431144) at 37° C., 20% O2, 8% CO2 with agitation at 100 rpm. Cells were seeded as described in the manufacturer's instructions (300,000 cells/ml). HEK293-F were obtained from Thermofisher, R79007.
One day before transfection, the cells were counted using a haemocytometer and split to 500,000 cells/ml. […]
24 hours after transfection, the promoters were induced by addition of 20 μM forskolin and luciferase activity was measured 0, 3, 5 and 24 hours after induction. Luciferase activity was measured as described below. […]

For `C=C[C@@]1(C)CC(=O)[C@]2(O)[C@@]3(C)[C@@H](O)CCC(C)(C)[C@@H]3[C@H](OC(=O)CCN(C)C)[C@H](OC(C)=O)[C@@]2(C)O1.Cl` [NKH 477], the “Potency as inducer of the promoters compared with forskolin” value ([1]; 7.2 μM NKH477 vs 20 μM forskolin) is listed as “slightly more potent inducer”, the “Concentration determined to be optimum to induce expression” value [2] is listed as “about 8 μM” and the Water solubility [3] is listed as “water-soluble”.

B1: FMP-02: synthetic forskolin-inducible promoter, SEQ ID NO: 41; 8×AP1(1) TFBS with MinTK minimal promoter (nucleic acid)
DNA: TGAGTCAGATGATGCGTAGCTAGTAGTTGAGTCAGATGATGCGTAGCTAGTAGTTGAGTCAGATGATGCGTAGCTAGTAGTTGAGTCAGATGATGCGTAGCTAGTAGTTGAGTCAGATGATGCGTAGCTAGTAGTTGAGTCAGATGATGCGTAGCTAGTAGTTGAGTCAGATGATGCGTAGCTAGTAGTTGAGTCAGTAGTCGTATGCTGATGCGCAGTTAGCGTAGCTGAGGTACCGTCGACGATATCGGATCCTTCGCATATTAAGGTGACGCGTGTGGCCTCGAACACCGAGCGACCCTGCAGCGACCCGCTTAA
modifications: Synp-FMP-02
notes: 8×AP1(1) TFBS with MinTK minimal promoter
For B1, the “Promoter strength ranking (fold induction)” value [4] was “weakest” and the Promoter strength ranking [1] was “weakest”.

B2: FLP-01: synthetic forskolin-inducible promoter, SEQ ID NO: 42; 8×AP1(1) TFBS with G6PC minimal promoter (nucleic acid)
DNA: TGAGTCAGATGATGCGTAGCTAGTAGTTGAGTCAGATGATGCGTAGCTAGTAGTTGAGTCAGATGATGCGTAGCTAGTAGTTGAGTCAGATGATGCGTAGCTAGTAGTTGAGTCAGATGATGCGTAGCTAGTAGTTGAGTCAGATGATGCGTAGCTAGTAGTTGAGTCAGATGATGCGTAGCTAGTAGTTGAGTCAGTAGTCGTATGCTGATGCGCAGTTAGCGTAGCTGAGGTACCGTCGACGATATCGGATCCGGGCATATAAAACAGGGGCAAGGCACAGACTCATAGCAGAGCAATCACCACCAAGCCTGGAATAACTGCAGCCACC
modifications: Synp-FLP-01
notes: 8×AP1(1) TFBS with G6PC minimal promoter
In the case of B2, the “Promoter strength ranking (fold induction)” value [4] is reported as “strongest” and the Promoter strength ranking [1] is reported as “strongest”.
